The record followed here is paper PMC5484534.

The target of the assay is 5,6-TAMRA-labeled short BMAL1 TAD (residues 594-626), wild type (mouse). Description: fluorescence polarisation.

mouse CRY1 photolyase homology region (PHR, residues 1-491), sequence (P97784 1-491): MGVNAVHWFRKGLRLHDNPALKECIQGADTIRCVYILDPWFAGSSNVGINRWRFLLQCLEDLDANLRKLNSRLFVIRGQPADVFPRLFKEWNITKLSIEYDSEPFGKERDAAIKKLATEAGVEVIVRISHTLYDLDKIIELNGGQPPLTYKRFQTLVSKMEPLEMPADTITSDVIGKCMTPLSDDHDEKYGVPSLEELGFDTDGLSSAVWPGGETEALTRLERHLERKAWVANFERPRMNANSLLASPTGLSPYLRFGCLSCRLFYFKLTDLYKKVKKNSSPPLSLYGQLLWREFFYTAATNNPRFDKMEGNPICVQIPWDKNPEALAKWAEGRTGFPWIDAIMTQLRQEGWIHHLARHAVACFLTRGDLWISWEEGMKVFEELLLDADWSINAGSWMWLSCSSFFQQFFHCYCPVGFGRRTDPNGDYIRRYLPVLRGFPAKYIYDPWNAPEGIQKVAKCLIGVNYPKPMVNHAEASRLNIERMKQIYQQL

The term Kd denotes the free concentration of one partner at which half of the binding sites on the other are occupied at equilibrium, for simple one-to-one binding. A lower Kd goes with a tighter complex. Consider “mouse CRY1 photolyase homology region (PHR, residues 1-491) (from UniProt P97784 1-491) (domain or fragment)”, for which the Kd was determined as 900 nM.
